The source of these data is patent US20250382379A1 (VISTERRA, published 2025).

Where a chain is given by its changes, count along the chain named.

For assay [1], the target named is T1, human CD138 (syndecan-1), membrane-bound on CD138+ multiple myeloma cell lines (human, UniProt P18827 23-310).
T1 construct: whole, on cells; also called membrane CD138; cell surface CD138
T1 sequence (looked up): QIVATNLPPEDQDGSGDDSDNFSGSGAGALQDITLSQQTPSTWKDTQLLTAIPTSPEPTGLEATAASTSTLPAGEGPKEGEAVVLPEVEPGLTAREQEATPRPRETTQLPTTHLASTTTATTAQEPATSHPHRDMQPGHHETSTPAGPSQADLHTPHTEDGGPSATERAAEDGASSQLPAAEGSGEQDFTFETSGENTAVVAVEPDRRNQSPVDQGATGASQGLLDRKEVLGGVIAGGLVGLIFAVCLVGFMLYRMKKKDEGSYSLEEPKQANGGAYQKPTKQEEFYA
Kind of assay: flow cytometry on U266 cells, geometric MFI.

Assay [2] addresses T2, extracellular domain of soluble human CD138 (amino acids 18-251 of SEQ ID NO 1), biotinylated recombinant (human, UniProt P18827 18-251, biotinylated (site not stated)).
T2 construct: also called CD138 extracellular domain; soluble extracellular domain of human CD138
T2 sequence: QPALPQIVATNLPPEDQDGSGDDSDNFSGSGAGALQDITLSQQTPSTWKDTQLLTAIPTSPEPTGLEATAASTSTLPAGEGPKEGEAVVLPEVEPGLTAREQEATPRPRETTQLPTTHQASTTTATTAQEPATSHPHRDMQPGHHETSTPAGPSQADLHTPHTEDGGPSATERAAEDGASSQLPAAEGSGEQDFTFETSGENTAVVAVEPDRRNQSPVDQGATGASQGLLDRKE
Nature of the assay: antigen capture ELISA, antibody coated, biotinylated CD138 extracellular domain, reference BB4. As to the method: (§1) 1 or select human CD138 derived peptides (Table 3) was evaluated by antigen capture ELISA. […] The immobilized monoclonal antibodies were tested for binding to biotinylated recombinant CD138 extracellular domain or peptides 2A, peptide 6A in 5-fold serial antigen dilutions starting at starting at a 50 nM concentration. HRP-conjugated Anti-biotin secondary antibody (1:10000 dilution) was used for detection.

In assay [3] the target is T1, human CD138 (syndecan-1), …. Kind of assay: flow cytometry on U266 cells, maximal MFI, reference BB4. How it is done: The antibodies were then serially diluted three-fold. Antibody binding to membrane CD138 was evaluated using the CD138+ human lymphoblastic myeloma cell line U266 and quantified by flow cytometry. Antibody cell binding was reported as geometric mean fluorescence intensity (MFI). Binding data were plotted using nonlinear regression analysis and a 4-parameter curve fit.
Antibody cell binding was reported as geometric mean fluorescence intensity (MFI). Binding data were plotted using nonlinear regression analysis and a 4-parameter curve fit.

Assay [4] deals with T3, human CD138 derived peptide 2A (integrin binding domain), biotinylated (human, biotinylated (site not stated)).
T3 construct: also called Pep2a
T3 peptide: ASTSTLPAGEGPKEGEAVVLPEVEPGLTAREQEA
Nature of the assay: antigen capture ELISA, antibody coated, biotinylated peptide titrated from 50 nM. As to the method: as §1

Assay [5] deals with T4, human CD138 derived peptide 6A (membrane proximal region), biotinylated (human, biotinylated (site not stated)).
T4 construct: also called Pep6a
T4 peptide: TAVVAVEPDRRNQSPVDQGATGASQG
The assay is described as above. How it is done: as §1

In assay [6] the target is T1, human CD138 (syndecan-1), …. Kind of assay: flow cytometry on MM1.S, LP-1 and RPMI 8226 cells.

B1: mouse chimeric anti-CD138 antibody 2810 (antibody, V domains shown)
VH: QVQLHQPGTSLVKPGASVKLSCKASGYSFSSYYMHWVKQRPGQGLEWIGTIHPSDSTTNYNQKFKGKATLTVDKSSRTAYMQLNSLTFEDSAVYYCANFVYWGQGTSVTVSS
VL: DIVITQDELSNPVTSGDSVSISCRSSKSLLYKDGKTYLNWFLQRPGQSPQLLIYVVSTRASGVSDRFSGSGSGTDFTLEISRVKAEDVGVYYCQQLVEYPYTFGGGTKLEIK
notes: Described as a mouse-human chimeric antibody; also called mAb2810
Consider B1, for which the binding result in assay [1] is given as “binds”.

B2: humanized anti-CD138 antibody mAb 4320 (antibody, human IgG1, kappa, V domains shown)
VH: QVQLVQSGAEVKKPGASVKVSCKASGYSFSSYYMHWVRQAPGQGLEWMGTIHPSDSTTNYNQKFQGRVTMTVDTSTRTAYMELSSLRSEDTAVYYCANFVYWGQGTTVTVSS
VL: DIVMTQTPLSLSVTPGQPASISCKSSKSLLYKDGKTYLNWFLQKPGQSPQLLIYVVSTRASGVPDRFSGSGSGTDFTLKISRVEAEDVGVYYCQQLVEYPYTFGQGTKLEIKR
notes: Produced with 2FF in the medium to reduce core fucose of the N297 glycan
On to B2, for which the “fold higher binding affinity in comparison to BB4” value in assay [2] was approximately 6 fold. For the same molecule, in assay [3], the “total cell surface binding (maximal MFI) relative to antibody BB4” value was approximately 25 % greater than BB4. Besides, the binding result in assay [4] and in assay [5] was “binds” in each case.

B3: humanized anti-CD138 antibody variant 3821 (antibody, human IgG1, V domains shown)
VH: B2 VH with A16S, T58A, Q65K, M70I, T74K, R77S
VL: DIVMTQTPLSLSVTPGQPASISCKSSKSLLYKDGKTYLNWFLQKPGQSPQLLIYVVSTRASGVPDRFSGSGSGTDFTLKISRVEAEDVGVYYCQQLVQYPYTFGQGTKLEIK
notes: also called mAb 3821
As to B3, in assay [6], the binding result is given as “binds”.

B4: humanized anti-CD138 antibody variant 4326 (antibody, human IgG1, V domains shown)
VH: B2 VH
VL: DIVMTQSPDSLAVSLGERATINCKSSQSLLYKDGKTYLNWFQQKPGQPPKLLIYVVSTRASGVPDRFSGSGSGTDFTLTISSLQAEDVAVYYCQQLVEYPYTFGQGTKLEIK
notes: also called mAb 4326
In the case of B4, the binding result in assay [6] is “binds”.

B5: humanized anti-CD138 antibody variant 4321 (antibody, human IgG1, V domains shown)
VH: B2 VH
VL: B3 VL
notes: also called mAb 4321
As to B5, in assay [6], the binding result was “binds”.

B6: humanized anti-CD138 antibody variant 3820 (antibody, human IgG1, V domains shown)
VH: B2 VH with A16S, T58A, Q65K, M70I, T74K, R77S
VL: B3 VL with Q98E
notes: also called mAb 3820
Turning to B6, in assay [6], the binding result is on record as “binds”.

B7: humanized anti-CD138 antibody variant 4521 (antibody, human IgG1, V domains shown)
VH: B2 VH with S28N, S30A, Q65K, R77S
VL: B3 VL
notes: also called mAb 4521
For the molecule B7, the binding result in assay [6] was “binds”.
